Laboratory results from patent US20110262445A1 (CEPHALON AUSTRALIA, published 2011).

T1: human IL-12 (human, UniProt P29460 23-328; P29459 23-219)
T1 construct: Recombinant (Peprotech); FLAG-tagged IL-12 in the flow cytometry assays, biotinylated in the IL-12Rβ2 assay; also called hIL-12
T1 sequence 1: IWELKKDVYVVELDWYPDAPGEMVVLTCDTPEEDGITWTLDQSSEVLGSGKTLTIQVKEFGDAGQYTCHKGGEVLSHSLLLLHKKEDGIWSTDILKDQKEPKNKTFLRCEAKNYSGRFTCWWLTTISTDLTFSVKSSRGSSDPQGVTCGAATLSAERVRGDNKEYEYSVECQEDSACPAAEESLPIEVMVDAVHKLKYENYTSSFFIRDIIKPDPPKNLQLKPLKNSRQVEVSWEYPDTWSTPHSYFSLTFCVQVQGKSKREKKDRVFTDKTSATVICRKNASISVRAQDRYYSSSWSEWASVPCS
T1 sequence 2: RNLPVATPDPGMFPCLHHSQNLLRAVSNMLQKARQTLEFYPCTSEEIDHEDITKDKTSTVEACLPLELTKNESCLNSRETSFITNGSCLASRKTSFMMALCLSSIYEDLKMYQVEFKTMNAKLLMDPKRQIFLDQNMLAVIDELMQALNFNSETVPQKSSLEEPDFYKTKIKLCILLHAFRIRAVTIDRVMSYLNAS

T2: human IL-23 (human, UniProt P29460 23-328; Q9NPF7 20-189)
T2 construct: Recombinant (Ebioscience); HIS-tagged in flow cytometry, biotinylated in some assays; also called hIL-23; rhIL-23
T2 sequence 1: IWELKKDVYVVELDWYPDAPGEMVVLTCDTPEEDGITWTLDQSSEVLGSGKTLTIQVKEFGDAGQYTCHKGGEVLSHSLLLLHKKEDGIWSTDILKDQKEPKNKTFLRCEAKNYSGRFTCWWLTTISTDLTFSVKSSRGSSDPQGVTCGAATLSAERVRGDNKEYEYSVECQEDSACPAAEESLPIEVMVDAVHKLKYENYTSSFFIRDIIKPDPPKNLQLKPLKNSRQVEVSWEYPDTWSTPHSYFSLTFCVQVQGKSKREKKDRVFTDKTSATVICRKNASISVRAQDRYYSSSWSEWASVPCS
T2 sequence 2: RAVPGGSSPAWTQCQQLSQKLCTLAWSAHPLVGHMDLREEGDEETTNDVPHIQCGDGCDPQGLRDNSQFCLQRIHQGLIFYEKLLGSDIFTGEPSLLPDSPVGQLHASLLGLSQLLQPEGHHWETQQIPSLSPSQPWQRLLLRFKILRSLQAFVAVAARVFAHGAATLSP


Assays:
human IL-12 [1] = target: T1, human IL-12; experiment: ELISA, coated IL-12
In short: (§1)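 Cytokine at 1 μg/mL in carbonate buffer pH 9.6 was coated overnight at 4° C onto Maxisorp plates and blocked with 1% BSA in PBS for 1 hour at 25° C. Antibody titrations were bound for 1 hour at 25° C, then detected with goat anti-human IgG or anti-murine immunoglobulin HRP (1:2000, 1 hour). TMB was developed and stopped with 1M HCl. The binding result is absorbance at 450 nm (reference 620 nm).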

human IL-23 [2] = target: T2, human IL-23; experiment: ELISA, coated IL-23
In short: as §1

human IL-12 [3] = target: T1, human IL-12; experiment: SPR, IgG on Protein A
Protocol: (§2) Using SPR technology the kₐ and kd and the KD of various humanized antibodies was determined.
(§3) Using a SPR 3000, Protein A was immobilized onto FC1 and FC2 (or alternatively FC3 and FC4) of a CM5 research grade sensor chip using amine coupling, giving approximately […] RU. FC1 was used a blank throughout the experiments. The experiments were run in HBS-P buffer (SPR). At a flow rate of 20 μl/min, 20 μl of 5 μg/mL of antibody was passed over FC2. IL-12, IL-23 or IL-12p40 (Peprotech) were passed over the surface of FC1 and FC2 at concentrations ranging from 66 nM to 2 nM. Regeneration of the surface was performed using 10 mM Glycine, pH 1.0. The sensorgram data from FC2 was subtracted from FC1 and a buffer only control. The curves were fitted using a 1:1 Langmuir equation to generate the kd, ka and KD values. All curves were fitted with a χ² of less then 2.0 where possible.

human IL-23 [4] = target: T2, human IL-23; experiment: SPR, IgG on Protein A
Protocol: as §2, §3

| Binder | binding result (human IL-12 [1]) | binding result (human IL-23 [2]) | Kd (human IL-12 [3]) [nM] | koff (human IL-12 [3]) [s⁻¹] | kon (human IL-12 [3]) [M⁻¹ s⁻¹] | Kd (human IL-23 [4]) [nM] | koff (human IL-23 [4]) [s⁻¹] | kon (human IL-23 [4]) [M⁻¹ s⁻¹] |
| --- | --- | --- | --- | --- | --- | --- | --- | --- |
| Antibody 180 (antibody, human IgG1, kappa, V domains shown) VH: EVQLVQSGAEVKKPGATVKISCKASGYTLSDYYLHWVRQAPEKGLEWMGWIDPENGDTESAPKFQGRVTITADTSTDTGYLELSSLRSEDTAVYYCAANKELRYFDVWGQGTLVTVSS VL: DIQMTQSPSSVSASVGDRVTITCRASQSISINLHWYQQKPGKAPKLLIYFASQSISGVPSRFSGSGSGTDFSLTINSLQTEDFATYYCQQSNSFPLTFGGGTKVEIKR |  |  | 0.0325 | 0.000173 | 5.31e+06 | 0.0297 | 9.27e-05 | 3.12e+06 |
| Antibody 181 (antibody, human IgG1, kappa, V domains shown) VH: EVQLVQSGAEVKKPGATVKISCKASGYTFSDYYLHWVRQAPEKGLEWMGWIDPENGDTEHAPKFQGRVTITADTSTDTGYLELSSLRSEDTAVYYCAANKELRYFDVWGQGTLVTVSS VL: DIQMTQSPSSVSASVGDRVTITCRASQSISINLHWYQQKPGKAPKLLIYFASQSISGVPSRFSGSGSGTDFSLTINSLQTEDFATYYCQQSNSFPLTFGGGTKVEIKR |  |  | 0.0681 | 0.000244 | 3.57e+06 | 0.0424 | 0.000173 | 4.09e+06 |
| Antibody 177 (antibody, human IgG1, kappa, V domains shown) VH: EVQLVQSGAEVKKPGATVKISCKASGYTFSDYYLHWVRQAPEKGLEWMGWIDPENGDTESAPKFQGRVTITADTSTDTGYLELSSLRSEDTAVYYCAANKELRYFDVWGQGTLVTVSS VL: DIQMTQSPSSVSASVGDRVTITCRASQSISINLHWYQQKPGKAPKLLIYFASQSISGVPSRFSGSGSGTDFSLTINSLQTEDFATYYCQQSNSFPLTFGGGTKVEIKR |  |  | 0.046 | 0.000212 | 4.61e+06 | 0.0373 | 0.000128 | 3.43e+06 |
| Antibody 205 (antibody, human IgG1, kappa, V domains shown) VH: QVQLVQSGAEVKKPGASVKVSCKASGYTFTDYYLHWVRQAPGRGLEWMGWIDPENGDTEYAPKFQGRVTMTTDTSTSTAYMELRSLRSDDTAVYYCAANKELRYFDVWGQGTMVTVSS VL: EIVMTQSPATLSVSPGERATLSCRASQSISINLHWYQQKPGQAPRLLIYFASQSISGIPARFSGSGSGTEFTLTISSLQSEDFAVYYCQQSNSFPLTFGGGTKVEIKR |  |  | 0.157 | 0.000581 | 3.7e+06 | 0.0862 | 0.000415 | 4.81e+06 |
| Antibody 193 (antibody, human IgG1, kappa, V domains shown) VH: QVQLVQSGAEVKKPGASVKVSCKASGYTFTDYYLHWVRQAPGQGLEWMGWIDPENGDTESAPKFQGRVTMTTDTSTSTAYMELRSLRSDDTAVYYCAANKELRYFDVWGQGTMVTVSS VL: DIQMTQSPSSVSASVGDRVTITCRASQSISINLHWYQQKPGKAPKLLIYFASQSISGVPSRFSGSGSGTDFSLTINSLQTEDFATYYCQQSNSFPLTFGGGTKVEIKR |  |  | 0.0794 | 0.000206 | 2.6e+06 |  |  |  |

More lines, now with the values ahead:

| binding result (human IL-12 [1]) | binding result (human IL-23 [2]) | Kd (human IL-12 [3]) [nM] | koff (human IL-12 [3]) [s⁻¹] | kon (human IL-12 [3]) [M⁻¹ s⁻¹] | Kd (human IL-23 [4]) [nM] | koff (human IL-23 [4]) [s⁻¹] | kon (human IL-23 [4]) [M⁻¹ s⁻¹] | Binder |
| --- | --- | --- | --- | --- | --- | --- | --- | --- |
| binds | binds |  |  |  |  |  |  | Antibody 93 (antibody, human IgG1, kappa, V domains shown) VH: EVQLVQSGAEVKKPGATVKISCKASGYTFSDYYLHWVRQAPEKGLEWMGWIDPENGDTEYAPKFQGRVTITADTSTDTGYLELSSLRSEDTAVYYCNANKELRYFDVWGQGTLVTVSS VL: DIQMTQSPSSVSASVGDRVTITCRASQSISINLHWYQQKPGKAPKLLIYFASQSISGVPSRFSGSGSGTDFSLTINSLQPEDFARYYCQQSNSFPLTFGGGTKVEIKR |
|  |  | 0.0344 | 0.000214 | 6.23e+06 | 0.0246 | 0.000129 | 5.27e+06 | Antibody 182 (antibody, human IgG1, kappa, V domains shown) VH: EVQLVQSGAEVKKPGATVKISCKASGYTLSDYYLHWVRQAPEKGLEWMGWIDPENGDTEHAPKFQGRVTITADTSTDTGYLELSSLRSEDTAVYYCAANKELRYFDVWGQGTLVTVSS VL: DIQMTQSPSSVSASVGDRVTITCRASQSISINLHWYQQKPGKAPKLLIYFASQSISGVPSRFSGSGSGTDFSLTINSLQTEDFATYYCQQSNSFPLTFGGGTKVEIKR |
|  |  | 0.103 | 0.000274 | 2.65e+06 | 0.05 | 0.000202 | 4.03e+06 | Antibody 195 (antibody, human IgG1, kappa, V domains shown) VH: QVQLVQSGAEVKKPGASVKVSCKASGYTFTDYYLHWVRQAPGQGLEWMGWIDPENGDTEHAPKFQGRVTMTTDTSTSTAYMELRSLRSDDTAVYYCAANKELRYFDVWGQGTMVTVSS VL: DIQMTQSPSSVSASVGDRVTITCRASQSISINLHWYQQKPGKAPKLLIYFASQSISGVPSRFSGSGSGTDFSLTINSLQTEDFATYYCQQSNSFPLTFGGGTKVEIKR |
|  |  | 0.0855 | 0.000356 | 4.16e+06 | 0.0794 | 0.000211 | 2.66e+06 | Antibody 192 (antibody, human IgG1, kappa, V domains shown) VH: QVQLVQSGAEVKKPGASVKVSCKASGYTLTDYYLHWVRQAPGQGLEWMGWIDPENGDTEYAPKFQGRVTMTTDTSTSTAYMELRSLRSDDTAVYYCAANKELRYFDVWGQGTMVTVSS VL: DIQMTQSPSSVSASVGDRVTITCRASQSISINLHWYQQKPGKAPKLLIYFASQSISGVPSRFSGSGSGTDFSLTINSLQTEDFATYYCQQSNSFPLTFGGGTKVEIKR |
|  |  | 0.217 | 0.00084 | 3.86e+06 | 0.142 | 0.000609 | 4.28e+06 | Antibody 190 (antibody, human IgG1, kappa, V domains shown) VH: QVQLVQSGAEVKKPGASVKVSCKASGYTFTDYYLHWVRQAPGQGLEWMGWIDPENGDTEYAPKFQGRVTMTTDTSTSTAYMELRSLRSDDTAVYYCNANKELRYFDVWGQGTMVTVSS VL: DIQMTQSPSSVSASVGDRVTITCRASQSISINLHWYQQKPGKAPKLLIYFASQSISGVPSRFSGSGSGTDFSLTINSLQTEDFATYYCQQSNSFPLTFGGGTKVEIKR |
|  |  | 0.158 | 0.000594 | 3.75e+06 | 0.0877 | 0.000409 | 4.65e+06 | Antibody 198 (antibody, human IgG1, kappa, V domains shown) VH: QVQLVQSGAEVKKPGASVKVSCKASGYAFTDYYLHWVRQAPGQGLEWMGWIDPENGDTEYAPKFQGRVTMTTDTSTSTAYMELRSLRSDDTAVYYCAANKELRYFDVWGQGTMVTVSS VL: DIQMTQSPSSVSASVGDRVTITCRASQSISINLHWYQQKPGKAPKLLIYFASQSISGVPSRFSGSGSGTDFSLTINSLQTEDFATYYCQQSNSFPLTFGGGTKVEIKR |
|  |  | 0.0927 | 0.000194 | 2.09e+06 | 0.041 | 0.000122 | 2.99e+06 | Antibody 194 (antibody, human IgG1, kappa, V domains shown) VH: QVQLVQSGAEVKKPGASVKVSCKASGYTLTDYYLHWVRQAPGQGLEWMGWIDPENGDTESAPKFQGRVTMTTDTSTSTAYMELRSLRSDDTAVYYCAANKELRYFDVWGQGTMVTVSS VL: DIQMTQSPSSVSASVGDRVTITCRASQSISINLHWYQQKPGKAPKLLIYFASQSISGVPSRFSGSGSGTDFSLTINSLQTEDFATYYCQQSNSFPLTFGGGTKVEIKR |
